Assay: yeast display, Sf9 membrane polyspecificity reagent, FACS + sequencing; frameworks hold sequencing errors
Summary of the method: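 After 36–48 hours of galactose induction, yeast (Saccharomyces cerevisiae BJ5465) displaying a synthetic nanobody library were stained at 4 °C for 1 hour with 10% biotinylated, detergent-solubilized Sf9 membrane reagent. Streptavidin microbeads enriched the stained cells before FACS sorting into low and high (top ~1%) gates on anti-HA and streptavidin fluorescence. Each clone's polyreactivity label reflects its gate of origin.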
With “QVQLVESGGGLVQAGGSLRLSCAASGLTFIGYVMGWYRQAPGKERELVAAISGSGGSTYYADSVKGRFTISRDNAKNTVYLQMNSLKPEDTAVYYCAARSRVLTRYDYWGQGTQVTVSS” the “polyreactivity (PSR sort gate)” value was “high polyreactivity”.
For “QVQLVESGGGLVQAGGSLRLSCAASGSIFTEYVMGWYRQAPGKERELVAAAITRGGSTNYADSVKGRFTISRDNAKNSVYLQMYCLKPEDTAVYYCNKDVWPVSRQLYTGKYDSWGQGTQVTVSS”, the “polyreactivity (PSR sort gate)” value was “low polyreactivity”.
For “QVQLVESGGGLVQAGGSLRLSCAASGSTFAFYAMGWYRQAPGTERELVAAIRSGGSTNYADSVKGRFTISRDNAKNTVYLQMNSLKPEDTAVYYCAARESDPGSHSVYREDDYWGQGTQVTVSS”, the “polyreactivity (PSR sort gate)” value was “low polyreactivity”.
With “QVQLVESGGGLVQAGGSLRLSCAASGFTFWPNAMGWYRQAPGKERELVAAINWSGGSTYYADSVKGRFTISRDNAKNSVYLQMNSLKPEDTAVYYCNADPYLLEHDYWGQGTQVSVSS” the “polyreactivity (PSR sort gate)” value was “low polyreactivity”.
For “QVQLVESGGGLVQAGGSLRLSCAASGNTFTWYTMGWYRQAPGKERELVAVMTSDGSTYYADSVKGRFTISRDNAKNTVSFQMNSLKPEDTAVYYCNRGVFDTFYYYPQVGFGYWGQGTQVTVSS”, the “polyreactivity (PSR sort gate)” value was “low polyreactivity”.
For “QVQLVESWVGLVQAGGSLSLSCDASGFTILGYAMGWYRQAPGKERELVASITYGGDSTYYADSVKGRFTISRDNAKNTVYLQINCLKPEDTAVYYCNARPSYWWGGRLYGYWGQGSQVTVSS”, the “polyreactivity (PSR sort gate)” value was “high polyreactivity”.
With “QVQLVESGGGLVQAGGSLRLSCAASGFTFNDYAMGWYRQAPGKERELVAAISKSGSRTYYADSVKGRFTISRDNAMNTVYLQMNSLKPEDTAVYYCNALPSYYGTYDYWGQGTQVTVSS” the “polyreactivity (PSR sort gate)” value was “high polyreactivity”.
For “QVQLEESGGGLVQAGGSLRLSCAASGLTFRSYAMGWYRQAPGTEREFVAAITGSGDTTYYAVSVKGRFTISRDNALNTVYLQMNSLNPEETAGYYCNADRDYLWITLYEYWGQGTQLTVSS”, the “polyreactivity (PSR sort gate)” value was “high polyreactivity”.
In the case of “QVQHVESGGGLVQAGGSLRLSCAASGFIFTPYAMGWYRQAPGKEREFVASITWSGGSTNYADSVKGRFTISRDNAKNTVYLQMNSLKPEDTAVYYCNADTWSPNDYWGLGTQVTVSS”, the “polyreactivity (PSR sort gate)” value is reported as “low polyreactivity”.
With “QVQLVESGGGLVQAGGSLRLSCAASGRTFASYMGWYRQAPWKERELVAAINWSGGTTYYADSVKGRFTISRDNAKNSVYLQMNSLKPEDTAVYYCNKLGYQSRGDYWGQGTQVTVSS” the “polyreactivity (PSR sort gate)” value was “high polyreactivity”.
For “QVQLVESGGGLDQAGGSLRLSCAAAGITFTYYAMGWYRPAPGKERELVASITIGGGSTYYADSVKVRFTISRDNAKNTVYLQMKSLKPEDTAVYYCNAAFSVRHLYRYDYWGQGTQVTVSS”, the “polyreactivity (PSR sort gate)” value was “low polyreactivity”.
With “QVHLEESGRGLLQAGGSLRLSCDASGSTQNLYVMGWYRQAPGKESELVAAITSRGGRTYYADSVKGRFTISRDNAKNTVYLHMNSLKPEDTAVYYCAATKKTGYYRYYYWGQGTQVTVSS” the “polyreactivity (PSR sort gate)” value was “high polyreactivity”.
In the case of “QVQLVESGGGLVQAGGSLRLSCAASGLTFTYYAMGWYRQAPGKERELVAAISSSGSDTYYADSVKGRFTISRDNAKNTVYLQMNSLKPEDTAVYYCAAVLTALSPDFEYEYWGQGTQVTVSS”, the “polyreactivity (PSR sort gate)” value is reported as “low polyreactivity”.
In the case of “QVQLVESGGGLVQAGGSLRLSCAASGITFYWYAMGWYRQAPGKERELVARISSTGGSTYYADSVKGRFTISRDNAKNTVYLQMNSLKPEDTAVYYCNAVGRLYLYGSWGQGTQVTLSS”, the “polyreactivity (PSR sort gate)” value is reported as “high polyreactivity”.
With “QVQLLESGGGLVQAGGSLRLSCVASGGILSSNAMGWYRQAPGKERELVAAISSGGSTNYADSVKGRFTISRDNAKNTVYLQMNSLKPDDTAVYYCAADSKIGSFDSWGQGTQVNVSS” the “polyreactivity (PSR sort gate)” value was “low polyreactivity”.
In the case of “QVHLVESGGGLVQAGGSLRLSCAASGSIFYSNAMGWYRQAPGKERELVAAITRGGSTHYADSVKGRFTISRDNAKNTVYLQMNSLKPEDTAVYYCNKDLNFAKYISSILYDYWGQGTQVSVSS”, the “polyreactivity (PSR sort gate)” value is reported as “low polyreactivity”.
In the case of “QVQLVESGGGLVQAGGSLRLSCAASGLTFIYYAMGWYRQAPGKEREMVAAISTSGASTYYADSVKGRFTISRDNAKNTVYLQMNSLKPEVSAVYYCNGEYFGEYRDYGYWGQGTLVTVSS”, the “polyreactivity (PSR sort gate)” value is reported as “low polyreactivity”.
In the case of “QVQLEESGGGLVQAGGSLRLSCAASGLIFARNAMGWYRQAPGKERELVAAISKRGGSTFYADSVKGRFTISRDNAKNTVYLQMKSLNPEDTAVYYCNARSSETWHGDYWGQGTQVTVSS”, the “polyreactivity (PSR sort gate)” value is reported as “high polyreactivity”.
With “QVQLVESGGGLVQAGGSLRLSCAASGRIFKTNAMGWDRQGPGKERELVAGITGRSGSSYYADSVKGRFTISRDIAMNTVYLQMNSLKPEDTAVYYCAAPLYGRYSYGYWGQGNQVTVSS” the “polyreactivity (PSR sort gate)” value was “high polyreactivity”.
In the case of “QVQLVESGGGLVQAGGSLRLSCAASGSIFGKYAMGWYRQAPGKERELVAAITIRGGSTYYADSVKGRFTISRDNAKNTVYLQMNSLKPEDTAVYYCNAVSKYYFGVDYWGQGTQVTVSS”, the “polyreactivity (PSR sort gate)” value is reported as “high polyreactivity”.
In the case of “QVQLHESGCVLVQAGGSLRLRCAASRNISGSSDLGWYHQAPGKEREFVASITSGGTTYYADSVKVRFTISRDNAKNTVYLQMNSLKPEDTAVYYCAVGDPADAEFGYWGQGTQVTVSS”, the “polyreactivity (PSR sort gate)” value is reported as “low polyreactivity”.
For “QVQLVESGGGLVQAGGSLRLSCAASGSIFEYYTMGWYRQAPGKERELVAGISWSGGSTYYADSVKGRFTISRDNAKNTVYLQMNSLKPEDTAVYYCAARSRSGRQEYYYWGQGTQVTVSS”, the “polyreactivity (PSR sort gate)” value was “high polyreactivity”.
In the case of “QVQLVESGGGLVQAGGSLRLSCAASGFIFDHNAMGWYRQAPGKERELVAAISGSGGSTYYADSVKGRFTISRDNAKNTVYLQMNSLKPEDTAVYYCNALKRTRLVRYYYWGQGTQVNVSS”, the “polyreactivity (PSR sort gate)” value is reported as “high polyreactivity”.
For “QVQLVESGGGLVQAGGSLRLICAASGRIFRVYAMGWYRQSPGKERELVAAISSRGGRTYYADSVKGRFTISRDNAKNTVYLQMKSMIPEDTAVYYCAADGRSSSRTTYRYDYWGQGTQVTVSS”, the “polyreactivity (PSR sort gate)” value was “high polyreactivity”.
In the case of “QVQLVESGGGLVQAGGSLRLSCAASGFIFDWNTMGWYRQAPGKERELVAAITESSGSTYYADSVKGRFTISRDNAKNTVYLQMNSLKPEDTAVYYCAADFSYVYYLYDYWGQGTQVTVSS”, the “polyreactivity (PSR sort gate)” value is reported as “low polyreactivity”.
For “QVQLVESGGGLVQAGGSLRLSCAASGRTFVPYAMGWYRQAPGKERELVAAISYSGDSTYYADSVKGRFTISRDNAKNTVYLQMNSLKPEDTAVYYCAARGGNPFYYWGQGTQVTVSS”, the “polyreactivity (PSR sort gate)” value was “low polyreactivity”.
In the case of “QVQLVESGARLVQAVGSLRLSCAASARILTFNAMGWYRQAPGKEREVVASITSDVSTYYADSVKGRFTISRDNAKTTVYLQMNSLKPEDTAVYYCAADGWYTYVGRLDYWRQGTQVTVSS”, the “polyreactivity (PSR sort gate)” value is reported as “low polyreactivity”.
With “QVQLEDSGGGLVQAGGSLRLSCAASGFTILRYAMGWYRQAPGKERELVAAIDWYGGSTYYADSVKGRFTISRDNAKNTVFVQMNSLKPEDCAVYYCNARKINFPSRFNDWGQGTQVTVSS” the “polyreactivity (PSR sort gate)” value was “low polyreactivity”.
For “QVQLQESGGGLVQAGGSLRLSCAASGSIFADVQMGWYRQAPGKELELVASINFRGTTTYYADSVKGRFTISRDNAKNTVYLQMSSLKPEDNAVYYCAVGRSEGGDFAYWGQGTHVTVSS”, the “polyreactivity (PSR sort gate)” value was “low polyreactivity”.
In the case of “QVQLVESGGGLVQAGGSLRLSCAASGSTFNDYAMGWYRQAPGKERELVASIRYSGGGTYYADSVKGRFTISRDNAKNTVYLQMNSLKPEDTAVYYCAKDTHLLNEHSGTSREYDYWGQGTQVTVSS”, the “polyreactivity (PSR sort gate)” value is reported as “low polyreactivity”.
With “QVQLVESVGGLVQAGGSLRLSCAASGFIILINVMGWYRKAPGKERELVAVITGGGTTNYADSVKGRFTISRDNAKNTVYLQMNSLKPEDTAVYYCAVDAGAGDNDYWGQGTQVTVSS” the “polyreactivity (PSR sort gate)” value was “low polyreactivity”.
For “QVQLVESGGGLVQAGGSLRLSCDASGSIFEYYAMGWYRPAPGKERELVAAISSGGPTYYADSVKGRFTISRDNAKNTVYLQMNSLKPEDTAVYYCNADLWYPDYDYWGQGTQVTVSS”, the “polyreactivity (PSR sort gate)” value was “low polyreactivity”.
In the case of “QVQLVESGVGLLQAGGILRISCASSGITFAWYAMVRYRQAPGKERELVAAIDDRGGSTYYADSVKGRFTISRDNAKNTVYFQMNSLKPEDTAVFYCNADTPSYEPYRLDYWGHGTQVTVSS”, the “polyreactivity (PSR sort gate)” value is reported as “low polyreactivity”.
With “QVQLVESGGGLVQAGGSLRLSCAASGSTFATYAMGWYRPAPGKERELVAAITRGGRTNYADSVKGRFTISRDNAKNTVYLQMNSLKPEDTSVYYCAADYIYGYFWRFGYWGQGTQVTVSS” the “polyreactivity (PSR sort gate)” value was “low polyreactivity”.
In the case of “QVQLVESGGGLVQAGGSLRLSCAASGRIFGQYAMGWYRQAPGKERELVASISRRGGSTNYADSVKGRFTISRDNAKNTVYLQMNSLKPEDSAVYYCAARTWRRQYYRTRYEYWGQGTQVNVSS”, the “polyreactivity (PSR sort gate)” value is reported as “high polyreactivity”.
With “QVQLVESGGGLVQAGGSLRLSCAASGLIFSSYAMGWYRQAPGKEREFVAAINYNGGRTYYADSVKGRFTISRDNAKNTVYLQMNSLKPEDTAVYYCDGRYGSGGDYWGQGTQVTVSS” the “polyreactivity (PSR sort gate)” value was “low polyreactivity”.
For “QVQLVESGGGLVQAGGSLRLSCAASGFILSPNTMGWYRPAPGKERELVAAISTDVSTYADSVKGRFTISRDNAKNTVYFQMNSLKPEDTAVYYCNADDFGYASYEYWGQGTQVTVSS”, the “polyreactivity (PSR sort gate)” value was “low polyreactivity”.
With “QVQLVESGGGLVQAGGSLRLSCAASGGIFDSYAMGWYRQAPGKERELVAAISWSGDRTYYADSVKGRFTISRDNAKNTVYLQMISLKPEDTAVYYCAADDGYTYGEGYYWGQGTQVTVSS” the “polyreactivity (PSR sort gate)” value was “high polyreactivity”.
With “QVQLVESGGGLVQAGGRLRLSCAASGRIFVVYAMGWSRQAPGKERELVAAISKRGGSTYYADSVKGRFTISRDNAKYTVYLQMNTLKPEDTAVYYCAAGRYKSDLMDYWGQGTQVTVSS” the “polyreactivity (PSR sort gate)” value was “high polyreactivity”.
For “QVQLEESGGGLVQAGGSLRLSCAASGRIFTANAMGWYRQAPGKERELVASISYRSGRTRYADSVKGRFTISRDNAKNTVYLQMNSLKPEDTAVYYCATDRGRRYDYWGQGTQVTVSS”, the “polyreactivity (PSR sort gate)” value was “high polyreactivity”.
With “QVQLVESGGGLVQAGASLRLSCAASGSIFRRNAMGWYRQAPGKERELVAAISYRGGSTNYADSVKGRFTISRDNAKNTVYLQMNSLKPEDTAVYYCAAKIYRSSGQGMDYWGQGTQVTVSS” the “polyreactivity (PSR sort gate)” value was “low polyreactivity”.

— the nanobody polyreactivity screen of Harvey et al. (2022)
